Measured values from the RNAGym collection of RNA variant scans (doi:10.7554/elife.80360).

B1: Hairpin Ribozyme (parent)
chain: GUCCUCUUUCACGUGCGCGUGAAAGAGAGAAGUGAACCAGAGAAACACACGUUGUGGUAUAUUACCUGGUA

Variants of: B1
Experiment: self-cleavage, relative activity (ratio to wild type); higher = more cleavage; co-transcriptional

Q: With GUCCUCUUUCACGUGCGCGUGAAAGAGAGAAGUGAACCGGAGAAACACUCGUUGUGGUAUAUUACCUGGUA [A39G A49U] as the variant, how does the self-cleavage read?
A: The self-cleavage was 0.0948.

Q: Which self-cleavage does the source give for GUCCUCUUUCACGUGCGCGUGAAAGAGAGAAGUGAACCCGAGAAACACACGUUGUGGUAUAUCACCUGGUA [A39C U63C] here?
A: The self-cleavage was 0.122.

Q: For GUCCUCUUUCACGUGCGCGUGAAAGAGAGAAGUGAACCGGAGAAACAGACGUUGUGGUAUAUUACCUGGUA [A39G C48G], which self-cleavage is on record?
A: Its self-cleavage is 0.0932.

Q: For GUCCUCUUUCACGUGCGCGUGAAAGAGAGAAGUGAACCGGAGAAACACACUUUGUGGUAUAUUACCUGGUA [A39G G51U], which self-cleavage is on record?
A: The self-cleavage was 0.36.

Q: Which self-cleavage does the source give for GUCCUCUUUCACGUGCGCGUGAAAGAGAGAAGUGAACCGGAGAAACACACCUUGUGGUAUAUUACCUGGUA [A39G G51C] here?
A: Its self-cleavage is 0.232.

Q: With GUCCUCUUUCACGUGCGCGUGAAAGAGAGAAGUGAACCCGAGAAACACACGUUGUGGUAUAGUACCUGGUA [A39C U62G] as the variant, how does the self-cleavage read?
A: The self-cleavage was 0.108.

Q: Which self-cleavage does the source give for GUCCUCUUUCACGUGCGCGUGAAAGAGAGAAGUGAACCCGAGAAACACACGUUGUGGUAUAAUACCUGGUA [A39C U62A] here?
A: Its self-cleavage is 0.159.

Q: With GUCCUCUUUCACGUGCGCGUGAAAGAGAGAAGUGAACCGCAGAAACACACGUUGUGGUAUAUUACCUGGUA [A39G G40C] as the variant, how does the self-cleavage read?
A: The self-cleavage was 0.0572.

Q: Which self-cleavage does the source give for GUCCUCUUUCACGUGCGCGUGAAAGAGAGAAGUGAACCGUAGAAACACACGUUGUGGUAUAUUACCUGGUA [A39G G40U] here?
A: Its self-cleavage is 0.116.

Q: With GUCCUCUUUCACGUGCGCGUGAAAGAGAGAAGUGAACCGGAGCAACACACGUUGUGGUAUAUUACCUGGUA [A39G A43C] as the variant, how does the self-cleavage read?
A: Its self-cleavage is 0.137.

Q: With GUCCUCUUUCACGUGCGCGUGAAAGAGAGAAGUGAACUAGAGAAACACACGUUGUGGUAUAUUACCUCGUA [C38U G68C] as the variant, how does the self-cleavage read?
A: The self-cleavage was 0.171.

Q: For GUCCUCUUUCACGUGCGCGUGAAAGAGAGAAGUGAACCCCAGAAACACACGUUGUGGUAUAUUACCUGGUA [A39C G40C], which self-cleavage is on record?
A: Its self-cleavage is 0.0323.

Q: With GUCCUCUUUCACGUGCGCGUGAAAGAGAGAAGUGAACCGGACAAACACACGUUGUGGUAUAUUACCUGGUA [A39G G42C] as the variant, how does the self-cleavage read?
A: Its self-cleavage is 0.129.

Q: For GUCCUCUUUCACGUGCGCGUGAAAGAGAGAAGUGAACCGGAUAAACACACGUUGUGGUAUAUUACCUGGUA [A39G G42U], which self-cleavage is on record?
A: The self-cleavage was 0.107.

Q: Which self-cleavage does the source give for GUCCUCUUUCACGUGCGCGUGAAAGAGAGAAGUGAACCCGAGAAACACACGUUGUGGUAUAUUACCUGAUA [A39C G69A] here?
A: Its self-cleavage is 0.168.

Q: Which self-cleavage does the source give for GUCCUCUUUCACGUGCGCGUGAAAGAGAGAAGUGAACCGGAGAUACACACGUUGUGGUAUAUUACCUGGUA [A39G A44U] here?
A: The self-cleavage was 0.103.

Q: For GUCCUCUUUCACGUGCGCGUGAAAGAGAGAAGUGAACCCGAGAAACACACGUUGUGGUAUAUUACAUGGUA [A39C C66A], which self-cleavage is on record?
A: Its self-cleavage is 0.152.

Q: With GUCCUCUUUCACGUGCGCGUGAAAGAGAGAAGUGAACCCGAGAAACACACGUUGUGCUAUAUUACCUGGUA [A39C G57C] as the variant, how does the self-cleavage read?
A: The self-cleavage was 0.127.

Q: With GUCCUCUUUCACGUGCGCGUGAAAGAGAGAAGUGAACCCGAGAAACACACGUUGUGUUAUAUUACCUGGUA [A39C G57U] as the variant, how does the self-cleavage read?
A: Its self-cleavage is 0.16.

Q: For GUCCUCUUUCACGUGCGCGUGAAAGAGAGAAGUGAACCCGAGAAACACACGUUCUGGUAUAUUACCUGGUA [A39C G54C], which self-cleavage is on record?
A: Its self-cleavage is 0.213.

Q: For GUCCUCUUUCACGUGCGCGUGAAAGAGAGAAGUGAACCGGAGAAACACACGUUGUGGUAUAUUACAUGGUA [A39G C66A], which self-cleavage is on record?
A: The self-cleavage was 0.101.

Q: With GUCCUCUUUCACGUGCGCGUGAAAGAGAGAAGUGAACCGGAGAAACACACGUUGUGGUAUAUUACUUGGUA [A39G C66U] as the variant, how does the self-cleavage read?
A: The self-cleavage was 0.194.

Q: With GUCCUCUUUCACGUGCGCGUGAAAGAGAGAAGUGAACUAGAUAAACACACGUUGUGGUAUAUUACCUGGUA [C38U G42U] as the variant, how does the self-cleavage read?
A: The self-cleavage was 0.2.

Q: Which self-cleavage does the source give for GUCCUCUUUCACGUGCGCGUGAAAGAGAGAAGUGAACCCGACAAACACACGUUGUGGUAUAUUACCUGGUA [A39C G42C] here?
A: The self-cleavage was 0.169.

Q: Which self-cleavage does the source give for GUCCUCUUUCACGUGCGCGUGAAAGAGAGAAGUGAACCCGAAAAACACACGUUGUGGUAUAUUACCUGGUA [A39C G42A] here?
A: Its self-cleavage is 0.191.

Q: Which self-cleavage does the source give for GUCCUCUUUCACGUGCGCGUGAAAGAGAGAAGUGAACCGGAGAAACACACGUAGUGGUAUAUUACCUGGUA [A39G U53A] here?
A: The self-cleavage was 0.295.

Q: Which self-cleavage does the source give for GUCCUCUUUCACGUGCGCGUGAAAGAGAGAAGUGAACCGGCGAAACACACGUUGUGGUAUAUUACCUGGUA [A39G A41C] here?
A: The self-cleavage was 0.267.

Q: With GUCCUCUUUCACGUGCGCGUGAAAGAGAGAAGUGAACCCGAGAAACACACGUUGUGGUAUAUUACCUCGUA [A39C G68C] as the variant, how does the self-cleavage read?
A: The self-cleavage was 0.191.

Q: Which self-cleavage does the source give for GUCCUCUUUCACGUGCGCGUGAAAGAGAGAAGUGAACUAGAGAAACACACGUUGUGGUAUAUUACCUGGGA [C38U U70G] here?
A: Its self-cleavage is 0.39.

Q: Which self-cleavage does the source give for GUCCUCUUUCACGUGCGCGUGAAAGAGAGAAGUGAACCCGAGAAACUCACGUUGUGGUAUAUUACCUGGUA [A39C A47U] here?
A: The self-cleavage was 0.151.

Q: With GUCCUCUUUCACGUGCGCGUGAAAGAGAGAAGUGAACUAGAGAAACACACGUUGUGCUAUAUUACCUGGUA [C38U G57C] as the variant, how does the self-cleavage read?
A: Its self-cleavage is 0.182.

Q: Which self-cleavage does the source give for GUCCUCUUUCACGUGCGCGUGAAAGAGAGAAGUGAACUAGAGAAACACACGUUGUCGUAUAUUACCUGGUA [C38U G56C] here?
A: The self-cleavage was 0.171.

Q: For GUCCUCUUUCACGUGCGCGUGAAAGAGAGAAGUGAACCCGAGAAACACACGUUGCGGUAUAUUACCUGGUA [A39C U55C], which self-cleavage is on record?
A: Its self-cleavage is 0.188.

Q: For GUCCUCUUUCACGUGCGCGUGAAAGAGAGAAGUGAACUAGAGAAACACACGUUGUGGUAUAUUACCGGGUA [C38U U67G], which self-cleavage is on record?
A: The self-cleavage was 0.204.

Q: Which self-cleavage does the source give for GUCCUCUUUCACGUGCGCGUGAAAGAGAGAAGUGAACUAGAGAAACACACGUUGUGGAAUAUUACCUGGUA [C38U U58A] here?
A: Its self-cleavage is 0.333.

Q: Which self-cleavage does the source give for GUCCUCUUUCACGUGCGCGUGAAAGAGAGAAGUGAACCCGCGAAACACACGUUGUGGUAUAUUACCUGGUA [A39C A41C] here?
A: Its self-cleavage is 0.349.

Q: For GUCCUCUUUCACGUGCGCGUGAAAGAGAGAAGUGAACCGGAGAAACACACGUUGAGGUAUAUUACCUGGUA [A39G U55A], which self-cleavage is on record?
A: The self-cleavage was 0.0918.

Q: Which self-cleavage does the source give for GUCCUCUUUCACGUGCGCGUGAAAGAGAGAAGUGAACCCGAGAAACACACGUUGUGGUAUAUUCCCUGGUA [A39C A64C] here?
A: Its self-cleavage is 0.193.
